Laboratory results: paper PMC10685452
Where no end group is shown, it is not given here.

Molecular target: T1, hGOAT-eGFP (human ghrelin O-acyltransferase with C-terminal eGFP and His10 tag) (human) (UniProt Q96T53)
T1 sequence: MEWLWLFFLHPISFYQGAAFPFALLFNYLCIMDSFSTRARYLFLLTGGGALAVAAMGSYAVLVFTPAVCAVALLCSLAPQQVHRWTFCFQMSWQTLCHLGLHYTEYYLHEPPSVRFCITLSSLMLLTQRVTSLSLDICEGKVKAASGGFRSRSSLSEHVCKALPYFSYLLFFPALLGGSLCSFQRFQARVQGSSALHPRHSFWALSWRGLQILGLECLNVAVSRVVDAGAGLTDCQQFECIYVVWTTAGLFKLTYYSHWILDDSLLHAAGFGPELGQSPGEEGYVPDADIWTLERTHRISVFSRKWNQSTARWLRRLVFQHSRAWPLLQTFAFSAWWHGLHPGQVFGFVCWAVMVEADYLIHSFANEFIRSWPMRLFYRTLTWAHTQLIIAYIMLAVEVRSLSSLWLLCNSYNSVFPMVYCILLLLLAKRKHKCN

ghrelin octanoylation activity of the MEGA-9 solubilisation supernatant of hGOAT-eGFP (HPLC, conversion of the fluorescent peptide substrate to the octanoylated product): 20%
B1: fluorescently labeled ghrelin mimetic peptide GSSFLC-NH2 (acrylodan-labelled) (peptide)
peptide: GSSFLC-NH2
modifications: not fully specified (residue 6); printed as GSSFLC_NH2_; ends and bridges not checked; also: acrylodan label, site not given here
